Source: paper PMC6435160, “Initiation-specific alleles of the Cdc45 helicase-activating protein” (PLoS ONE, 2019)
Where a chain is given by its changes, count along the chain named. Each block holds one binder with its values, some of them ahead of it.

How the values were obtained:
[1] = target: T1, Mcm2-7 replicative DNA helicase, loaded on origin DNA and phosphorylated by DDK (S. cerevisiae, UniProt P29469 1-868; P24279 1-971; P30665 1-933; P29496 1-775; P53091 1-1017; P38132 …); assay: pull-down; reconstituted DNA replication assay: Mcm2-7 loaded on bead-attached origin DNA (pARS1-Nco) and treated with DDK; S-CDK, Sld2, Dpb11, Pol α-primase, Pol ε, RPA, GINS, Mcm10, Sld3/7 and 130 nM Cdc45 added; 1 h at 25°C; beads washed with buffer H + 0.3 M K-Glut, 0.02% NP-40; proteins released with DNase and detected by immunoblot; amounts relative to wild type; details: both partners purified
T1 construct: Mcm2 subunit of Mcm2-7, S. cerevisiae; Mcm3 subunit of Mcm2-7, S. cerevisiae; Mcm4 subunit of Mcm2-7, S. cerevisiae; Mcm5 subunit of Mcm2-7, S. cerevisiae; Mcm6 subunit of Mcm2-7, S. cerevisiae; Mcm7 subunit of Mcm2-7, S. cerevisiae; In the assays the complex was loaded on origin DNA and treated with DDK; also called Mcm2-7 complex; loaded Mcm2-7; source: Mcm2-7/Cdt1 purified as previously …

[2] = target: T1, Mcm2-7 replicative DNA helicase, loaded …; assay: pull-down; CMG formation assay: Mcm2-7 loaded on bead-attached origin DNA (pUC19-ARS1) and treated with DDK; S-CDK, Sld2, Dpb11, Pol ε, GINS, Mcm10, Sld3/7 and 50 nM Cdc45 added, no Pol α-primase; 30 min at 25°C; beads washed with buffer H + 0.3 M KCl, 0.02% NP-40 (salt-stable complexes); proteins released with DNase and detected by immunoblot; amounts relative to wild type; details: both partners purified

binding result [1]: binds
B1: GINS complex (Sld5, Psf1, Psf2, Psf3) (complex, S. cerevisiae)
chain 1: MDINIDDILAELDKETTAVDSTKITQGSSSTTHRDANTIVGSSLDLNDKTQIYVSPQQDFSDLMKSWKNERCSPELLPYPHQLMKRLLNRISMQSQLIENISMGFLDMQNASNANPPMPNESKLPLLCMETELERLKFVIRSYIRCRLSKIDKFSLYLRQLNEDENSLISLTDLLSKDEIKYHDTHSLIWLKLVNDSILKYMPEELQAINDTEGSVNMIDEPDWNKFVFIHVNGPPDGKWNEDPLLQENEFGKPCYTVTIPDLKEEVELTIGSIYVMRYEVIRDLLRDDKVALI
chain 2: MYGDLGNKLVLEAKRTKQLYARSNQDVNLPMYHEDIIRNILKEVSNLRKNTEYLKEQQQLGMLDDKVAKCQYFVTLLCMERNKRCLLAYQRLRTDILDSMAWNNNGLDLMSSITFSQQDTNNLSHQEQEYLKEYCDLITDLKSGDLVDIDLSGSLVPPSDVFIDVRVLKDAGEIQTEYGVFNLIKDSQFFVRQSDVERLIQQGYLQKI
chain 3: MSLPAHLQQTFSPEEIQFIVENEPIKIFPRITTRQKIRGDDRGTGNHTRWQLITTDDKALNNMVAMRSTEVVLWIALLLKQQSKCSIVAPQWLTTKELDRKIQYEKTHPDRFSELPWNWLVLARILFNKAKDDFHDPIHELRGKIQDLREIRQIKVLKGLKYLNESHLQLDNLSLLEINELRPFITEIMDKLREIHTASLTAGTENDEEEFNI
chain 4: MGYYDIDDVLADGTEFPCKFQYDIPGLGYLENNPGRPITKNTKLSLPLWLARILAIVGGDEALVDEEPVPFVELLPPDMFSTKVMNAIKTDPVALDLHSINSHFFSLAIKWIMLFSEKELANVVSELLLQRAQELNHHASSLSIDLNADSTGKNSANTNIATSTFLLKLEEMEKEIYKKSHESYKDTKRWMFKK
notes: Sld5 subunit of GINS, S. cerevisiae; Psf1 subunit of GINS, S. cerevisiae; Psf2 subunit of GINS, S. cerevisiae; expressed as Psf2-3C-6xHis-Flag, tag removed with HRV 3C protease; Psf3 subunit of GINS, S. cerevisiae; not shown: 6xHis, C-terminal, cleaved; Flag, C-terminal, cleaved; copies: + + +

stable CMG complexes, percent of wild-type Cdc45 [2]: 67 % of wild-type Cdc45
B2: Cdc45-124 (DAH->AAA) (natural protein, S. cerevisiae, UniProt Q08032 1-650, looked up)
chain: MYYGISQFSEAYNKILRNSSSHSSCQLVIFVSCLNIDALCATKMLSLLFKKQLVQSQIVPIFGYSELRRHYSQLDDNINSLLLVGFGGVIDLEAFLEIDPQEYVIDTDEKSGEQSFRRDIYVLAAARPWNLDNIFGSQIIQCFDDGTVDDTLGEQKEAYYKLLELDEESGDDELSGDENDNNGGDDEATDADEVTDEDEEDEDETISNKRGNSSIGPNDLSKRKQRKKQIHEYEGVLEEYYSQGTTVVNSISAQIYSLLSAIGETNLSNLWLNILGTTSLDIAYAQVYNRLYPLLQDEVKRLTPSSRNSVKTPDTLTLNIQPDYYLFLLRHSSLYDSFYYSNYVNAKLSLWNENGKKRLHKMFARMGIPLSTAQETWLYMDHSIKRELGIIFDKNLDRYGLQDIIRDGFVRTLGYRGSISASEFVEALTALLEVGNSTDKDSVKINNDNNDDTDGEEEEDNSAQKLTNLRKRWVSNFWLSWDALDDRKVELLNRGIQLAQDLQRAIFNTGVAILEKKLIKHLRIYRLCVLQDGPDLDLYRNPLTLLRLGNWLIECCAESEDKQLLPMVLASIDENTDTYLVAGLTPRYPRGLDTIHTKKPILNNFSMAFQQITAETDAKVRIDNFESSIIEIRREDLSPFLEKLTLSGLL
notes: Cdc45, Saccharomyces cerevisiae, clustered alanine mutant; mutants are numbered by the position of the first mutated amino acid; also called Cdc45-ts

stable CMG complexes, percent of wild-type Cdc45 [2]: 55 % of wild-type Cdc45
percent of wild-type Cdc45 association [1]: 20 % of wild-type Cdc45 association
B3: Cdc45-238 (EEY->AAA) (natural protein, S. cerevisiae, UniProt Q08032 1-650, looked up)
chain: B2 chain with A124D, A126H, E238A, E239A, Y240A
notes: as for B2

stable CMG complexes, percent of wild-type Cdc45 [2]: 43 % of wild-type Cdc45
percent of wild-type Cdc45 association [1]: 27 % of wild-type Cdc45 association
B4: Cdc45-485 (DDRK->AAAA) (natural protein, S. cerevisiae, UniProt Q08032 1-650, looked up)
chain: B2 chain with A124D, A126H, D485A, D486A, R487A, K488A
notes: as for B2
